Among the targets are human IgG4 (human); mouse IgG2a (mouse); human IgG3 (human); mouse IgG2b (mouse); rat IgG2b (rat); rat IgG2c (rat); mouse IgG3 (mouse); rat IgG1 (rat); mouse IgG1 (mouse).
What all share (experiment): SPR
Test [1] addresses rat FcRn (FcRn/β2m heterodimer, soluble extracellular domain) (rat) (UniProt P13599).
Test [2] deals with mouse FcRn (FcRn/β2m heterodimer, soluble extracellular domain) (mouse) (UniProt Q61559).
In test [3] the target is rat FcRn (FcRn/β2m heterodimer, soluble extracellular domain) (rat) (UniProt P13599). The source holds these as a separate data set.
Test [4] has as its target mouse FcRn (FcRn/β2m heterodimer, soluble extracellular domain) (mouse) (UniProt Q61559). The source holds these as a separate data set.
For test [5] the target is unchanged. The source holds these as a separate data set.
Test [6] concerns the target rat FcRn (FcRn/β2m heterodimer, soluble extracellular domain) (rat) (UniProt P13599). This is another data set of the same source.
Test [7] deals with mouse FcRn (FcRn/β2m heterodimer, soluble extracellular domain) (mouse) (UniProt Q61559). The source holds these as a separate data set.
In test [8] the target is trastuzumab hIgG1 N434H (homodimer) (human).
Test [9] addresses trastuzumab hIgG1 N434Y (homodimer) (human).
Test [10] deals with trastuzumab hIgG1 wild type (homodimer) (human).
The target of test [11] is trastuzumab hIgG1 N434Y (homodimer) (human). The source holds these as a separate data set.
Test [12] addresses trastuzumab hIgG1 WT E arm (parental) (human).
In test [13] the target is trastuzumab hIgG1 I253A:WT E:R heterodimer (human).
In test [14] the target is trastuzumab hIgG1 WT R arm (parental) (human).
Test [15] addresses trastuzumab hIgG1 WT:WT E:R heterodimer (human).
In test [16] the target is trastuzumab hIgG1 N434Y R arm (parental) (human).
Test [17] concerns the target trastuzumab hIgG1 AAA:N434H E:R heterodimer (human).
The target in test [18] is trastuzumab hIgG1 AAA:N434Y E:R heterodimer (human).
For test [19], the target named is trastuzumab hIgG1 AAA:WT E:R heterodimer (human).
For test [20], the target named is rat IgG2a (panel of unrelated mAbs of subtype rIgG2a) (rat).
The target in test [21] is rhesus monkey IgG1 (rhesus monkey).
In test [22] the target is human IgG2 (category of several hIgG2 molecules) (human).
In test [23] the target is cynomolgus monkey IgG1 (cynomolgus monkey).
The target in test [24] is human IgG1 (category of several hIgG1 molecules) (human).
The target of test [25] is rat IgG2a (panel of unrelated mAbs of subtype rIgG2a) (rat). The source holds these as a separate data set.
Test [26] addresses rhesus monkey IgG2 (rhesus monkey).
Test [27] concerns the target cynomolgus monkey IgG2 (cynomolgus monkey).

“And” between values parts separate entries of the source, which are not always exact repeats. Identical values can stand only once. Like-named read-outs stand apart in the source and are kept apart here.

With “trastuzumab hIgG1 N434Y (homodimer) (antibody)”, the dissociation constant Kd is 3.3 nM in [1], 0.292 nM in test [2], 460 nM in [3] and 36 nM in test [4].

“trastuzumab hIgG1 AAA:N434Y E:R heterodimer (antibody)”: the equilibrium dissociation constant (Kd) in test [1] is 2.7 nM; in test [2], 0.28 nM; in test [5] it was 66 nM; in [4] it was 50 nM and 52 nM; in test [6], 3.5 nM; in [7], 0.35 nM.

“rat FcRn (FcRn/β2m heterodimer, soluble extracellular domain) (from UniProt P13599;P07151) (receptor)”: the Kd in [8] was determined as 9.9 nM; in [9] it was 4.5 nM; in test [10], 84 nM; in test [11], 455 nM.

For the molecule “mouse FcRn (FcRn/β2m heterodimer, soluble extracellular domain) (from UniProt Q61559;P01887) (receptor)”, the stoichiometry N was 2 FcRn per IgG in test [8]; 2 FcRn per IgG in [9]; 1 FcRn per IgG in test [17]; 1 FcRn per IgG in [18]; 1 FcRn per IgG in test [19]; 2 FcRn per IgG in test [10]. The Kd is 58 nM in [12]; 58 nM in test [13]; 0.47 nM in test [9]; 58 nM in [14]; 116 nM and 197 nM and 183 nM in the test with human IgG4 (human); 490 nM and 931 nM with mouse IgG2a (mouse). For the same molecule, the dissociation constant (Kd) is 58 nM in test [15]; 230 nM and 353 nM and 328 nM in the test with human IgG3 (human); 0.47 nM in [16]; 0.47 nM in test [18]; 58 nM in [19]; 58 nM in test [10]. Also, the dissociation constant Kd in test [11] worked out at 44.1 nM.

Consider “cynomolgus monkey FcRn (FcRn/β2m heterodimer, soluble extracellular domain) (from UniProt Q8SPV9;Q8SPW0) (receptor)”, for which the Kd in the test with human IgG4 (human) was 258 nM and 266 nM and 450 nM; with human IgG3 (human), 188 nM and 213 nM and 387 nM.

Consider “trastuzumab hIgG1 N434H (homodimer) (antibody)”, for which the figures for the Kd in [1] and in test [2] were 5.4 nM and 3.7 nM, respectively.

For the molecule “human FcRn (FcRn/β2m heterodimer, soluble extracellular domain) (from UniProt P55899;P61769) (receptor)”, the Kd with human IgG4 (human) was 717 nM and 973 nM; with human IgG3 (human), 585 nM and 898 nM.

Regarding “trastuzumab hIgG1 AAA:WT E:R heterodimer (antibody)”, the Kd in [1] stood at 46 nM; in test [2], 54 nM; in [6] it was 67 nM; in test [7] it was 49 nM.

Turning to “trastuzumab hIgG1 AAA:N434H E:R heterodimer (antibody)”, the Kd in test [1] turned out to be 4.9 nM; in test [2], 3.8 nM; in test [6], 8 nM; in test [7] it was 3.6 nM.

Take “trastuzumab hIgG1 wild type (homodimer) (antibody)”: the equilibrium dissociation constant (Kd) in test [1] came out at 49 nM; in test [2], 48 nM.

B1: rat FcRn (FcRn/β2m heterodimer, soluble extracellular domain) (receptor)
chain 1: AEPRLPLMYHLAAVSDLSTGLPSFWATGWLGAQQYLTYNNLRQEADPCGAWIWENQVSWYWEKETTDLKSKEQLFLEAIRTLENQINGTFTLQGLLGCELAPDNSSLPTAVFALNGEEFMRFNPRTGNWSGEWPETDIVGNLWMKQPEAARKESEFLLTSCPERLLGHLERGRQNLEWKEPPSMRLKARPGNSGSSVLTCAAFSFYPPELKFRFLRNGLASGSGNCSTGPNGDGSFHAWSLLEVKRGDEHHYQCQVEHEGLAQPLTVDL
chain 2: IQKTPQIQVYSRHPPENGKPNFLNCYVSQFHPPQIEIELLKNGKKIPNIEMSDLSFSKDWSFYILAHTEFTPTETDVYACRVKHVTLKEPKTVTWDRDM
Turning to B1, the dissociation constant (Kd) was 44 nM and 69 nM and 55 nM in test [20]; 332 nM and 368 nM with mouse IgG2b (mouse); 88 nM and 119 nM in test [21]; 53 nM and 93 nM in test [22]; 88 nM and 123 nM in test [23]; 186 nM and 248 nM in the test with rat IgG2b (rat). The Kd with human IgG4 (human) is 123 nM and 149 nM and 145 nM; in the test with rat IgG2c (rat), 452 nM and 617 nM; in [24], 68 nM and 135 nM; in the test with mouse IgG3 (mouse), 183 nM; with mouse IgG2a (mouse) it was 97 nM and 150 nM; with rat IgG1 (rat), 285 nM and 329 nM. Also, the dissociation constant (Kd) was 313 nM and 357 nM and 366 nM in the test with human IgG3 (human); 501 nM and 567 nM with mouse IgG1 (mouse); 45 nM and 76 nM in [25]; 41 nM and 51 nM in [26]; 38 nM and 51 nM in [27]. Further, in test [20], the off-rate (koff) came out at 0.0119 s⁻¹. This molecule also yielded a kon in [20] of 220000 M⁻¹ s⁻¹.

For the origin of these results see PMC4622529.
